# Experimental data: patent US20240287489A1, “CHITINOLYTIC ENZYME-BASED PLANT PROTECTION AGENTS” (GLOBACHEM NV, priority 2021, published 2024)
# B1: Chitinase 3: chitinolytic enzyme from P. orarium, SEQ ID NO: 3, recombinant with PelB signal peptide and 6×His tag (protein, listed as Photobacterium orarium)
# chain: MALAAPGTPQLAWMETDYAIVEVDQAATAYKDLVTVKNAADVPVAWQRYSGETADHWKVKLNGNVAFEESINPASSGAGSTTLSITQGGQYALTVELCSGSGAEEACSSSPATNIVVADTDGSHLDPLPMNVDPNNGTYSTPADTVVGAYFVEWGVFGRKFTVDKIPAQNLTHILYGFIPVCGPNESLGEIESGNSLAALNRACAGTPDFEVAIHDPWAAVQMPQPQSGHTYSTPYKGNYGQLMALKQRYPDLKVIPSIGGWTLSDPFFSFTDKSKRDVFVASVKKFLQTWKFFDGVDIDWEFPGGKGANTTLGDPVNDGPAYVALMRELRTMLDGLEAETGRQFELTSAIGVGYDKIDVVNYAEASQYMDYIFNMSYDFYGGWSNVTGHQTALNCGSHLTADQCNGTGVDENGEPRQGPAYTTAHGVERLLAQGVPANKLVVGAAMYGRGWTGVTQASMTDPSNPMTGVGNGAVAGSWEAGVIDYKDVVTRYENKAGVVLGYDEQAEAPWAYDPSNGDLVTYDSPRSIMAKGQYVRDLGLAGLFAWEIDADNGDILNAMQESLAGAPAGNRAPVARAGSDQQVNTAATVTLNGSSSTDSDGQIAGYQWVQTSGPALTLNGANTASATISVPDVTVDTQYVFTLTVTDNEGATATDSITVTAKAPGAQNTAPVASLTGPGTANADDVITLDASQSTDADGDTLTYDWTVPAGVNAVINGSSLSFTADSYTTDTALSFSVSVSDGTASDAASLTVTIAKDESGTGGEGDFPAYVEGTAYQAGDQVSNGGVNFECKPYPYSGWCSGAAWAYEPGVGVYWQDAWTQLIE
# modifications: PelB signal peptide; 6xHis tag; Chitinase 3
# B2: Chitinase 4: chitinolytic enzyme from P. orarium, SEQ ID NO: 4, recombinant with PelB signal peptide and 6×His tag (protein, listed as Photobacterium orarium)
# chain: MAQAAANCRPDGLYQTPGVTVPYCTVYDQDGREKMGVDHPRRVIGYFTSWRSGNDPQSSYLVNDIPWDSLTHINYAFVSIGSDGKVNIGNVNNPDNPAVGKEWPGVEIDPALGFKGHFGALATAKAQHGVKTLISIGGWAETGGHFDDNGNRVADGGFYTMTTNADGSINHQGIQTFADSAVAMMRQYKFDGLDIDYEYPTSMQGAGNPDDFAYSDAMRPHLMKSYHELMKVLREKLDQASAQDGHHYMLTIAAPSSGYLLRGMETMSVTKYLDYVNIMSYDLHGAWNDYVGHNASLFDSGLDAELEAGNVYGTAQYKKTGYLNTDWAYHYFRGSMPAGRINIGVPYYTRGWQGVTGGTNGLWGKAALPNQSDCPTGTGAGTSNCGYGAIGIDNMWHDKDANGNEMGAGSNPMWHAMNLANGVYGSYTAAYGLDPVNDPQDALTGTYTRHYDSVSVAPWLWNADKKVFLSTEDKESINTKADYVIEQGIGGIMFWELAGDYSCYNLDANGNRTTVDPTENACKTGNGEYHMGDTMTKAIHNKFATATPYGNTLAEGAIPTEAVNIDVSVTGFKVGDQNYPLNPTMTLTNKTGQTLPGGTEFQFDIPTSTPDNMSDQSGANLQVISSGHTRGDNIGGLDGNFHRVAFTLPSWKQLGNNESFELTLNYFLPISGPANYSVRVNNADYALAFEQPDLPIADLSNGGGDNGGGDGNNGDCVTTGVNTYPNWPQTDWAGNPSHAGTGDKIIYNGAVYQAKWWTNSVPGSDGSWDTVCTVQIE
# modifications: PelB signal peptide; 6xHis tag; Chitinase 4
# Assays:
# [1] = Enzyme kinetics on chitin powder (Michaelis-Menten non-linear fit); type: biochemical; details: 2 μM enzyme, 0-150 mg/ml chitin powder
# Description: Enzyme kinetics were determined using chitin powder as a substrate and the optimum enzyme to substrate ratio could be determined as well as Vmax and Km values. The concentrations of chitin powder varied
# from 0 mg/ml up to 150 mg/ml while amount of enzyme was kept constant (2 μM). The initial velocities (V0) versus substrate concentration ([S]) were plotted as Lineweaver-Burk and Michaelis-Menten curves using GraphPad software (FIG. 7).
# Maximum reaction velocities (Vmax) and Michaelis-Menten constants (Km) were determined using a non-linear fit Michaelis-Menten model (Table 4.6). Thereby, optimum enzyme-substrate ratios were determined that would allow a maximization of substrate conversion rates. Furthermore, the Km indicated the reciprocal enzyme-substrate affinity for C1-C5. Higher Km values reflect an overall lower affinity and thus reduced conversion efficiencies. […] In comparison, higher Km values for C2 and C5 reflected an overall lower affinity to insoluble chitin.
# (§1) Enzyme samples were incubated at different temperature (10-60° C., 10° C. increment) and pH (4-11, increment 1) using different buffer systems (Acetate, Tris-HCl, MES, total molar concentration 100 mM), as well as NaCl content (0, 1. 2.5, 5, 10 and 20% w/v) to determine optimum reaction conditions. All experiments were carried out at 1.0 ml scale using 2 μM of the respective enzymes and a 5% (wv) suspension of chitin powder extracted from shrimp shells (˜400.000 g/mol; Carl, Roth) in 100 mM MAT buffer. For the determination of the substrate specificity, chitin powder (5% w/v), glycol chitin (10% v/v), colloidal chitin (5% w/v), chitosan [DA 15-25%, medium molecular weight, Sigma-Aldrich] (5% w/v) and microcrystalline cellulose powder (Sigma Aldrich) (5% w/v) were investigated, respectively. The effect of several potential co-factors on activity was elucidated at a concentration of 1 mM. Additionally, the effect of detergents [SDS 0.5% (w/v), Tween-20 and Triton X-100 both at 0.5% (v/v)] and chemicals (Imidazole 100 mM, EDTA 1 mM) on enzymatic activity was assessed. Samples were incubated in a thermomixer for 16 h at 900 rpm. After incubation, samples were analyzed using the enzyme assay. Thermostability was assessed after incubation of recombinant chitinases at 60° C. for different durations followed by the quantification of residual enzyme activity under standard assay conditions.
# Gibberella zeae = type: cell-based; set-up: key: xx = no growth/strong inhibition; x = small inhibition; details: start concentration 100 μg/ml
# [2] = Substrate specificity, reducing end assay; type: biochemical; details: in % activity of chitin powder; 16 h at optimum conditions, 50 mg/ml substrate
# Description: (§2) Different chitinous substrates were tested to assess the substrate affinity of the novel chitinases relative to untreated chitin powder. […] As expected, the conversion of colloidal chitin is more efficient compared to chitin powder as it provides an overall smaller particle size and thereby larger surface area. Chitosan powder (degree of acetylation: 15%) was also degraded efficiently and high chitosanase activity was observed especially for C1, C3, C4 and C5. Merely basal activity was detected when cellulose was utilized as a substrate for all enzymes.
# as §1
# [3] = Substrate specificity, reducing end assay; type: biochemical; details: in % activity of chitin powder; 16 h at optimum conditions, 50 mg/ml substrate; remark: listed apart in the source
# Description: as §2
# The preparation of colloidal chitin was similar to the method described by Murthy and Bleakley with some minor differences [Murthy et al., Microbiol., 2012. 10(2): p. 1-5.]. Chitin powder (Carl Roth) was dissolved in concentrated hydrochloric acid (HCl) (5 g in 100 mL) and stirred at 4° C. for 24 h, after which the mixture was centrifuged at 4000×g for 15 min at 4° C. The precipitate was washed to neutral pH with distilled water and stored at 4° C.
# as §1
# [4] = Reducing end assay, specific chitinase activity of expression and purification fractions; type: biochemical; details: chitin powder, 16 h at 30° C.
# Description: Integrity and correctness of the constructs was confirmed by colony PCR and Sanger-sequencing. All constructs were transformed into E. coli BL21 and expressed recombinantly. Expression levels of the target enzymes were determined densitometrically after immunoblot detection for cytosolic and secreted expression. Enzymatic activity was determined for all samples using a reducing end assay. […] Furthermore, it was confirmed that these enzymes are efficiently released into the culture supernatant, rendering cell lysis unnecessary for future production cycles.
# A two-step purification of the selected recombinant enzymes with PelB signal peptide form the culture supernatant was carried out with an initial ammonium sulfate precipitation step and a sequential IMAC purification of the solubilized protein precipitate. Elution fractions were pooled and an SDS-PAGE and immunoblot was prepared loading the same volume for each sample (FIG. 4). Expression levels of the five chitinases varied largely, and C1 was detected in much greater abundance relative to the others. […] The observed molecular weight of all enzymes in SDS-PAGE gel and immunoblot was not in accordance with the expected theoretical molecular weight taking into account that a 6×His tag was added C-terminally to the enzymes and in general, bands for all enzymes were detected at a higher molecular weight. For all samples, unspecific bands could detected at ˜25 kDa and ˜50 kDa after IMAC purification, most likely representing host cell protein-contaminations. The amount of protein in the culture media, ammonium sulfate concentrates and the final dialyzed elution fractions was determined using the BCA assay and the same fractions were incubated with chitin powder for 16 h at 30° C. followed by the quantification of reducing sugars to measure specific chitinase activity (Table 4.2). Thereby it was confirmed that all target enzymes were successfully enriched during purification according to the specific activity.
# For the determination of enzymatic activity of recombinant chitinases, a reducing end assay was carried out [Svein et al., Carbohydr Polym, 2004. 56(1): p. 35-39.]. Fractions containing chitinases were incubated with 5% (w/v) chitin powder extracted from shrimp shells (˜400.000 g/mol; Carl Roth) in MAT buffer for 2 h in an overhead shaker at ambient temperature (standard conditions). Samples were centrifuged at 13000×g for 2 min and 40 μl of the supernatant was mixed with 40 μl 0.5 M NaOH and 40 μL of a reagent containing 1.5 mg/ml 3-Methyl-2-benzothiazolinonhydrazon and 0.75 mg/ml Dithiothreitol. Samples were incubated at 80° C. for 15 min and then thoroughly mixed with 80 μl of 0.5% (w/v) FeNH4(SO4)2)×12H2O, 0.5% (w/v) sulfamic acid and 0.25 M HCl. After cooling down to room temperature, 100 μl of the samples were measured at 620 nm. A calibration curve of N-acetyl-glucosamine was constructed freshly for each measuring cycle. One unit [U] was defined as the amount of enzyme required to release 1 μmol of reducing sugars per hour.
# [5] = Dialysed elution fraction after IMAC
Molecule,Km (enzyme-substrate affinity) [1],Vmax (maximum reaction velocity) [1],growth inhibition of Gibberella zeae in the MIC test (Gibberella zeae),"Relative activity, Cellulose [2]","Relative activity, Chitin [2]","Relative activity, Chitosan [2]","Relative activity, Colloidal chitin [3]",Specific activity ([4]; Culture supernatant fraction),"Specific activity [4, 5]"
B1,15.2 mg/mL,206.2 U/ml,x,9.4 ± 0.9%,100%,113.4 ± 9.0%,133.4 ± 6.5%,0.13 U/mg,8.13 U/mg
B2,22.2 mg/mL,218.6 U/ml,x,10.4 ± 0.9%,100%,141.3 ± 5.5%,117.7 ± 6.3%,0.07 U/mg,6.07 U/mg
